Experiments:
[1] = system: salivary and lacrimal glands of mice; experiment: Histopathological scoring for lymphocytic infiltrates (focus score); assay type: in vivo, mouse; conditions: 20 weeks post cannulation, vs control mice, statistically significant
Description: Submandibular glands (SMG) were removed for histological analysis from mice at the time of sacrifice, and placed O/N in 10% formalin. After fixation, the tissues were dehydrated in an ethanol series and embedded in paraffin according standard techniques. Sections were cut at 5 μm and subsequently stained with hematoxylin and eosin (H&E). Histopathological scoring was performed using the focus score. A focus is an aggregate of 50 or more mononuclear cells per 4 mm^2. Foci were counted through the whole section, in a total of three sections (50 μm between sections) per SG using a 40× magnification. The results were calculated and expressed as foci per 4 mm^2. The focus scores were assessed blindly by two different examiners and the mean scores were determined.
A hallmark of pSS is lymphocytic infiltration in the […] glands, especially salivary and lacrimal glands. To determine the effect of elevated BMP6 on the local immune environment of the salivary gland, histopathological scoring for lymphocytic infiltrates was performed on both salivary and lacrimal glands 20 weeks post cannulation. […] Furthermore, no changes in circulating autoantibodies to anti-Ro/SSA or anti-La/SSB were detected in the animals expressing BMP6 in the salivary glands compared with control mice (FIGS. 5C and 5D).

SMG ducts of mice = experiment: Electrical potential across the duct of the SMG; assay type: in vivo, mouse; conditions: mice transduced with 10^11 particles of AAV5 expressing BMP6, vs GFP control mice
From the text: To measure the electrical potential (EP) across the duct of the SMGs, a procedure was developed to measure the EP by cannulating the duct and inserting the electrode in the cannula. The high impedance electrode was attached to an electrometer (model FD223, World Precision Instrument, Sarasota, Fla.). The electrical potential of the duct was read by placing the ground electronic rode on the adjacent tissues to the opening of the ducts.
To measure electrophysiologic parameters associated with Sjögren's syndrome, a measurement circuit 20 (see FIG. 10) was established between a detection electrode 22 placed in a salivary gland duct and a reference electrode 24 placed in electrical contact with adjacent oral mucosa. In this particular example, the electrical potential was measured across the ducts of SMGs. A procedure was developed to measure TEER by cannulating the electrode of a transmeter (model FD223, World Precision Instrument, Sarasota, Fla.) in the ducts of SMGs of mice (FIG. 10). […]
The detecting electrode included a cannula 26 placed on a 1 mL syringe 28, which was a fixed supporter. […] The trans-epithelial potential was read by placing the ground electrode on the tissues adjacent to the opening of the ducts. Background potential was determined by reading the potential when the detecting electronic rode was placed in saline only.

SMEI cells = experiment: Trans epithelial resistance (TEER) of cell monolayers in transwells; assay type: cell-based; conditions: SMEI cells grown in 6 ng/ml BMP6 vs without BMP6
Description: (§1) Trans epithelial electrical resistance (TER) of all cell types was measured using a using a volt/ohm meter (Millicel; Millipore, Mass., USA) in an electrode chamber (EVOV; WPI, FL, USA). Cells were allowed to establish monolayers on 0.4-Am pore size polycarbonate filters in 6-mm Transwell chambers (Costar, Mass., USA).
(§2) Tight junction structures are important in the correct functioning of the salivary glands. […] To determine if BMP6 expression could alter epithelial integrity, monolayers of three well differentiated epithelia (SMEI, Caco-2, and MDCK1 cells) grown in the presence of 6 ng/ml BMP6 in transwells were tested for changes in trans epithelial resistance (TEER) compared with cells grown without BMP6 (FIG. 7A). […] BMP6 expression also changed the electrical potential of the glands as well (FIG. 7A).

MDCK1 cells = experiment: as above; assay type: cell-based; conditions: MDCK1 cells grown in 6 ng/ml BMP6 vs without BMP6
Description: as §1, §2

Caco-2 cells = experiment: as above; assay type: cell-based; conditions: Caco-2 cells grown in 6 ng/ml BMP6 vs without BMP6
Description: as §1, §2

[2] = system: HSG cells (a human salivary gland cell line); experiment: Regulated volume decrease (RVD) after hypotonic solution in HSG cells; assay type: cell-based; conditions: 6 ng/ml of BMP6 for 4 days
Description: Regulated volume decrease was measured as described previously (Liu et al., J Biol Chem 281:15485-15495, 2006). Briefly SMGs from mice were removed at the end of the study and prepared as described (Liu et al., J Biol Chem 281:15485-15495, 2006). Cells were then loaded with the fluoroprobe calcein (Molecular Probes, Inc., Eugene, Oreg.) and excited at 490 nm. Emitted fluorescence was measured at 510 nm. In situ calibration of the dye was performed. Origin 7.5 (OriginLab, Northampton, Mass.) was used for data analysis and display. Significant difference between individual groups was tested by using analysis of variance.
Although no increase in a number of immunological factors was detected, it is not possible to rule out the possibility that BMP6 expression is a trigger for expression of another soluble factor and is not directly causing the loss of RVD in isolated salivary gland cells from the treated mice. To test for a direct effect of BMP6 on RVD, HSG cells (a human salivary gland cell line) were treated with 6 ng/ml of BMP6 for 4 days and then assayed for a loss in RVD activity (FIG. 8B). […] To date little is known about the role of BMPs in SS and the present work represents the first association.

B1: BMP6: A member of the TGF-β superfamily of growth factors; added to cultured cells at 6 ng/ml (protein, UniProt P22004 375-513, looked up)
Bone morphogenetic protein 6: SASSRRRQQSRNRSTQSQDVARVSSASDYNSSELKTACRKHELYVSFQDLGWQDWIIAPKGYAANYCDGECSFPLNAHMNATNHAIVQTLVHLMNPEYVPKPCCAPTKLNAISVLYFDDNSNVILKKYRNMVVRACGCH
[1]
  Increase in focus score in the salivary glands: > 2 fold
SMG ducts of mice
  Electrical potential in intact salivary glands: increase in electrical potential
SMEI cells
  Change in TEER: statistically significant increase in TEER
MDCK1 cells
  Change in TEER: statistically significant increase in TEER
Caco-2 cells
  Change in TEER: statistically significant increase in TEER
[2]
  RVD activity of HSG cells: loss of volume decrease was detected

Source: patent US10864285B2, “Methods for the diagnosis and treatment of Sjögren's syndrome” (The U.S.A., as represented by the Secretary, Department of …, priority 2012, dated 2020)
